# Biological target: SpyDock (SpyCatcher2.1 S49C E77A), carbamidomethylated
# Experiment: ITC; 20 μM carbamidomethylated SpyDock in the cell, 20 injections of 210 μM SpyTag-MBP or SpyTag002-MBP from the syringe; 25 °C; 20 mM HEPES pH 7.0, 150 mM NaCl; 1:1 binding model
Substance,Kd [nM],stoichiometry N
SpyTag002-MBP,73,1
SpyTag-MBP,750,1

# Source: PMC6465384
